Tests used:
[1] = tested on: primary cortical neurons (PCNs); test: Aβ neurotoxicity in primary cortical neurons, WST-8 / Calcein / LDH; format: cell-based, mouse; details: for effect on the HN effect: 10 nM HNG
Experimental: B) PCNs were incubated with 25 μM Aβ (upper) in the presence of 10 μg of recombinant soluble human gp130 (lower “+”) or BSA (lower “−”). Cell viability was determined by WST-8 assay (upper) or Calcein fluorescence assay (lower) at 72 hr after the onset of treatment with Aβ.
C) PCNs were incubated with 25 μM Aβ (1-43) in the presence of 1 μg of neutralizing anti-mouse gp130 antibody (RX435) or control IgG. Cell viability and cell mortality were determined by Calcein fluorescence (left panel) and LDH assays (right panel), respectively, at 72 hr after the onset of treatment with Aβ (1-43).
[…] At 72 hr after incubation, the cells were harvested for WST-8 assays or/and Calcein fluorescence assays to show cell viability.
B) The soluble IL-6 receptor-α (sIL-6R) or the soluble CNTF-R (100 ng/ml) were added to the cells as in the above A), followed by the stimulation with its ligand, IL-6 or CNTF (100 ng/ml), respectively to show the effects on the neuronal cell death due to Aβ. The right and left graphs show the cell viabilities determined by WST-8 assays and Calcein fluorescence assays, respectively.
C) The neutralizing antibodies (1 μg) for the mouse gp130, mouse LIFR, mouse IL-11R and rat CNTF-R were added as in the above A), and cell viability was determined by Calcein fluorescence assays after 72 hours.
WST-8 assay was performed at 72 hrs after the treatment.
The primary culture of mouse cortical neurons was prepared as described previously (Sudo et al., 2000). Briefly, primary cortical neurons, obtained from embryonic day 14 (E14) ICR mice were seeded in poly-L-lysine-coated 96 well plates (Sumitomo Bakelite) at 2.5 or 5.0×10^4 cells/well in Neuron Medium (Sumitomo Bakelite) (Hashimoto et al., 2003; Niikura et al., 2004). Purity of neurons by this method was >98%. After 3 days, the culture medium was replaced with DMEM with N2 supplement. On the fourth day in vitro, 25 μM of Aβ (1-42) was added in association with indicated concentrations of HN or cytokines in the presence or the absence of soluble cytokine receptors or neutralizing antibodies. At 72 hrs after the onset of treatment, cell viability was assessed by WST-8 assay and/or Calcein fluorescence assay and cell mortality was assessed by the Trypan blue exclusion assay and LDH assay (Hashimoto et al, 2000, 2001 a b, 2003).

STAT3 = test: Immunoblot of phosphotyrosine 705 of STAT3 in F11 cells; format: cell-based; details: F11 cells, 15 min
Experimental: E) F11 cells were transfected with an indicated amount of pRNA-U6.1/Shuttle vector (empty), pRNA-U6.1/Shuttle-IL-6R siRNA, or pRNA-U6.1/Shuttle-LIFR siRNA. At 48 hrs after transfection, the cells were treated with 100 ng/ml IL-6, 100 ng/ml CNTF or 1 μM HNG at 37° for 15 min, and harvested. The results of immunoblot analysis using anti-phophoSTAT3 ([…]) antibody and anti-STAT3 antibody were shown in photos. A) F11 cells were added with an indicated amount of HN, HNG or HNA and harvested 15 min later for immunoblot analysis with antibodies recognizing phosphotyrosine 705 of STAT3 or STAT3. The results are shown in photos. B) F11 cells were transfected with 0.5 μg of pRNA-U1.6/Shuttle vector, pRNA-U6.1/Shuttle-WSX-1 siRNA, pRNA-U6.1/Shuttle-CNTF-R siRNA, both pRNA-U6.1/Shuttle-WSX-1 siRNA and pRNA-U6.1/Shuttle-CNTF-R siRNA (0.5 μg each), or pRNA-U6.1/Shuttle-FPR2 siRNA. The total amount of vectors was adjusted to be 1.0 μg by including a backbone vector. […] The results are shown in photos. Cell lysates (10-20 μg/lane) or pulled-down precipitates were subject to SDS-PAGE, and the proteins separated on the gel were transferred onto polyvinylidene difluoride membranes as described (Hashimoto et al, 2000). Visualization of the immunoreactive protein bands was performed by ECL (Amersham Pharmacia Biotech, Uppsala, Sweden).

F11 cells = test: Neuronal cell death of F11 cells induced by overexpression of FAD genes (V642I-APP, M146L-PS1), WST-8 / Trypan blue; format: cell-based
Experimental: D) F11 cells were transfected with 0.5 μg of the pcDNA3 vector or pcDNA3-V642I-APP in association with 0.5 μg of the pEFBos vector or pEFBos-wild-type human gp130 (gp130wt). At 24 hr after transfection, the cells were added with 1 μg of neutralizing anti-mouse gp130 antibody. Cell mortality (left panel) and cell viability (right panel) were determined by Trypan blue exclusion assay and WST-8 assay at 72 hr after transfection. Below are shown the results of the expression of V642I-APP, and human gp130wt, which were confirmed by immunoblot analysis (photos).
B) F11 cells were transfected with 0.5 μg of the pcDNA3 vector or pcDNA3-V642I-APP in association with pRNA-U6.1/Shuttle vector (NO), pRNA-U6.1/Shuttle-siWSX-1 (W), pRNA-U6.1/Shuttle-siCNTF-R (C), or pRNA-U6.1/Shuttle-siFPR-2 (F) (Hashimoto et al. 2005). At 24 hrs after transfection, the cells were added with or without 10 nM of HNG. At 72 hrs after transfection, the cells were harvested for WST-8 assays. […]
F11 cells were transfected with pcDNA3 vector or pcDNA3-V642I-APP. […] The expression of V642I-APP determined by immunoblot analysis was shown below in a photo. […]
The transfection procedures were as described (Hashimoto et al, 2000, 2001a, 2003). […] Transfection efficiency in these protocols has been determined to be invariably around 70%. […]

[2] = biological target: T1, C-terminally myc-tagged human WSX-1 (mycHis-WSX-1) (human, UniProt Q6UWB1 33-636); test: cold competitor (10 µM) in binding assay (1), F11 cells expressing human WSX-1 and gp130
T1 construct: whole, on cells; in the pull-down and co-immunoprecipitation it stood in cell lysates; also called myc-WSX-1; IL-27 receptor; not shown: C-terminal myc-His tag of the pEF-mycHis vector
T1 sequence (looked up): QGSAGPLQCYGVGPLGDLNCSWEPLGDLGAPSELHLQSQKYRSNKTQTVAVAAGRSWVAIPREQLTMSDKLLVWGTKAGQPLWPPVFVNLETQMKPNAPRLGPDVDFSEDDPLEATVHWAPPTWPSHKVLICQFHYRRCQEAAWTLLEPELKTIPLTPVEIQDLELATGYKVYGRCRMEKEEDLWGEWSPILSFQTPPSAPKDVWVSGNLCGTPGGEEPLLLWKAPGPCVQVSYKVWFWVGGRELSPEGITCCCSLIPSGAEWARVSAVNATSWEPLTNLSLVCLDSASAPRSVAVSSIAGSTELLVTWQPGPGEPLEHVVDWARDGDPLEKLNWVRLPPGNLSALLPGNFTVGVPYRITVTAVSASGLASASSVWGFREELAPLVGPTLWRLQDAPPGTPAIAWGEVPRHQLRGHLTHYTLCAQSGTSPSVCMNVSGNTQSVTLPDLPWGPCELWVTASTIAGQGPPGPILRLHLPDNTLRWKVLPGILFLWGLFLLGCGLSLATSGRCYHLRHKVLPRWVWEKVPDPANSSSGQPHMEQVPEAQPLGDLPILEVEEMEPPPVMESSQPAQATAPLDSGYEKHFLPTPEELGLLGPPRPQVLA
Experimental: B) F11 cells were transfected with 0.5 µg of pEF-myc His human CREME9 or pEF-mycHis human WSX-1 in association with 0.5 µg of pCAG-human gp130. […] Fluorescence signals were detected with a laser-scanning, confocal microscope LSM (Carl Zeiss, Germany) (right panels).
(§1) F11 cells (7×10^4/well in 6-well plates) were replated into 96-well plates (7×10^3 cells/well) at 24 hrs after transfection with indicated amounts of the plasmids encoding mycHis-WSX or V5-CNTF-R, and with PCAG-human gp130 if required. […] After 6 hrs incubation, they were fixed with 4% paraformaldehyde in PBS for 30 min. After washing with PBS, cells were stained with FITC-conjugated avidin (Molecularprobe, Eugene, Oreg., USA). Immunofluorescence intensity was measured (excitation=485 nm, emission=535 nm) with a spectrofluorometer (Wallac1420 ARVOsx Multi Label Counter). Immunohistochemical analysis was done with a laser-scanning, confocal microscope LSM (Carl Zeiss, Germany).

[3] = biological target: T2, Humanin receptor (HNR) overexpressed in F11 cells: human CNTF-R/WSX-1/gp130 (human, UniProt P26992 23-342; Q6UWB1 33-636; P40189 23-918); test: cold competitor in binding assay (2), F11 cells transfected with human CNTF-R/WSX-1/gp130
T2 construct: whole, on cells; The three human subunits co-transfected into F11 cells, which also carry the endogenous receptor; also called both the CNTF receptor and WSX-1; not shown: C-terminal V5 tag; C-terminal myc-His tag
T2 sequence (P26992 23-342, chain 1 of 2): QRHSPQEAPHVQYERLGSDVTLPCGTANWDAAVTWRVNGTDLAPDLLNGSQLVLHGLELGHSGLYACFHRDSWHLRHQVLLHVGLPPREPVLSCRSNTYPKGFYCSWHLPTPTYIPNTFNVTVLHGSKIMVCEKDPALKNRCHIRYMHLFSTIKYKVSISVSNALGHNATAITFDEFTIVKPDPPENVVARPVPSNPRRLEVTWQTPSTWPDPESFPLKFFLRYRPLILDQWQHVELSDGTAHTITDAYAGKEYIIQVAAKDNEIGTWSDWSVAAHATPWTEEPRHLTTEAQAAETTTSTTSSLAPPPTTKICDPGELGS
T2 sequence (P40189 23-918, chain 3 of 2): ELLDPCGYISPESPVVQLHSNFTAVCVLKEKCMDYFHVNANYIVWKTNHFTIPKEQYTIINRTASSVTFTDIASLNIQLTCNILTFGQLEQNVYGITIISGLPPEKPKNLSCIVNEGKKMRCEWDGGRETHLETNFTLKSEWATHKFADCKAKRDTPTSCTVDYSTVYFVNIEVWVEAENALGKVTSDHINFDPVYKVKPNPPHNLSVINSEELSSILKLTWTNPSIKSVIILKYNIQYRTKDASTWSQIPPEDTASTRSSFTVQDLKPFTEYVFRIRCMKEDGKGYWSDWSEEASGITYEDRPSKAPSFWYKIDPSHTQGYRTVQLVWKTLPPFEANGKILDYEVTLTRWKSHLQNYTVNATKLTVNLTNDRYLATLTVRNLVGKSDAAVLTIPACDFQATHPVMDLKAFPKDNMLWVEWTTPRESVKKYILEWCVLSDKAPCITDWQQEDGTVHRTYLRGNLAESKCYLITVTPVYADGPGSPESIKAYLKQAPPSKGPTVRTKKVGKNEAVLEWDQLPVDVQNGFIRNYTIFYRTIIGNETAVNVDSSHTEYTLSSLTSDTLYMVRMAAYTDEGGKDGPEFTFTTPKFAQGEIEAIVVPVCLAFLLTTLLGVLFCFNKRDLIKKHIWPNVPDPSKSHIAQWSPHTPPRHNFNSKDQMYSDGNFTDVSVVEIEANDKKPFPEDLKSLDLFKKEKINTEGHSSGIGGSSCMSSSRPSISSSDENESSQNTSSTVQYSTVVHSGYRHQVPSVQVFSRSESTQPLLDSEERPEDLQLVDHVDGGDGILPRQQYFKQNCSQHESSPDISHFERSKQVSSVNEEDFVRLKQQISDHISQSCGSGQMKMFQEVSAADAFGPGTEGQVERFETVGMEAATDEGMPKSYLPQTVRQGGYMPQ
Experimental: A) F11 cells were seeded on 96-well plates coated with poly-L-lysine (7 ×10^3 cells/well). […] On the other hand, F11 cells were transfected with 0.5 μg of pcDNA3.1/GS-human CNTF-R, pEF1/MycHis-human WSX-1, and 1.0 μg of pCAG-human gp130. At 24 hrs after the transfection, the cells were re-seeded on 96-well plates coated with poly-L-lysine (7 ×10^3 cells/well).
as §1

| binding result [2] | binding result [3] | Molecule | effect on the HN effect ([1]; PCN, 10 μM Aβ (1-43)) | mimicry of HN in neuroprotection against neuronal cell death by Aβ ([1]; cytokine 100 ng/ml with its soluble receptor (sIL-6R or soluble CNTF receptor) 100 ng/ml) | inhibition of neurotoxicity by Aβ ([1]; cytokine alone, physiological levels (up to 100 ng/ml), 25 μM Aβ) | phosphorylation of tyrosine 705 of STAT3 (STAT3) | concentration range showing HN-like effect (activity) (F11 cells; WST-8) [µM] | concentration range suppressing the HN effect (F11 cells; given with HNG) [nM] | HN-like effect ([1]; PCN, higher concentration range, 10 μM Aβ (1-43)) |
| --- | --- | --- | --- | --- | --- | --- | --- | --- | --- |
| – | – | CNTF: ciliary neurotrophic factor, recombinant cytokine (protein, UniProt P26441 1-200, looked up) Ciliary neurotrophic factor: MAFTEHSPLTPHRRDLCSRSIWLARKIRSDLTALTESYVKHQGLNKNINLDSADGMPVASTDQWSELTEAERLQENLQAYRTFHVLLARLLEDQQVHFTPTEGDFHQAIHTLLLQVAAFAYQIEELMILLEYKIPRNEADGMPINVGDGGLFEKKLWGLKVLQELSQWTVRSIHDLRFISSHQTGIPARGSHYIANNKKM | inhibited the HN effect | did not mimic HN | did not inhibit | increased | – | – | – |
| – | – | IL-27: IL-27 (IL-27p28/EBV-induced gene 3), IL-6/IL-12 family cytokine binding to WSX-1/gp130 (protein) chain 1: FPRPPGRPQLSLQELRREFTVSLHLARKLLSEVRGQAHRFAESHLPGVNLYLLPLGEQLPDVSLTFQAWRRLSDPERLCFISTTLQPFHALLGGLGTQGRWTNMERMQLWAMRLDLRDLQRHLRFQVLAAGFNLPEEEEEEEEEEEEERKGLLPGALGSALQGPAQVSWPQLLSTYRLLHSLELVLSRAVRELLLLSKAGHSVWPLGFPTLSPQP chain 2: RKGPPAALTLPRVQCRASRYPIAVDCSWTLPPAPNSTSPVSFIATYRLGMAARGHSWPCLQQTPTSTSCTITDVQLFSMAPYVLNVTAVHPWGSSSSFVPFITEHIIKPDPPEGVRLSPLAERQLQVQWEPPGSWPFPEIFSLKYWIRYKRQGAARFHRVGPIEATSFILRAVRPRARYYVQVAAQDLTDYGELSDWSLPATATMSLGK | suppressed the HN effect | – | – | increased | 1 to 10 | ≤ 100 | had the HN-like effect |
| binds | binds | MAPRGFSCLLLLTGEIDLPVKRRA (also called S14G-HN) [S14G-Humanin (HNG)] | – | – | – | – | – | – | – |
